Assay results from patent US6541450B1, “Parathyroid hormone analogues for the treatment of osteoporosis” (National Research Council of Canada, priority 1994, dated 2003).
Entries after “also recorded” stand apart in the source; their conditions may differ. Where two headings read alike, the source gives them in different places. Where a SMILES comes first, the peptide text is derived from it. Bridges are numbered along the chain shown (N, C = ends). Where no end group is shown, it is not given here.

Assays:
[1] = target: T1, adenylyl cyclase, ROS 17/2 cells (Rattus norvegicus, UniProt P25961); assay: Adenylyl cyclase stimulation, [3H]-cyclic AMP production in ROS 17/2 cells; type: cell-based
T1 sequence (P25961 27-591): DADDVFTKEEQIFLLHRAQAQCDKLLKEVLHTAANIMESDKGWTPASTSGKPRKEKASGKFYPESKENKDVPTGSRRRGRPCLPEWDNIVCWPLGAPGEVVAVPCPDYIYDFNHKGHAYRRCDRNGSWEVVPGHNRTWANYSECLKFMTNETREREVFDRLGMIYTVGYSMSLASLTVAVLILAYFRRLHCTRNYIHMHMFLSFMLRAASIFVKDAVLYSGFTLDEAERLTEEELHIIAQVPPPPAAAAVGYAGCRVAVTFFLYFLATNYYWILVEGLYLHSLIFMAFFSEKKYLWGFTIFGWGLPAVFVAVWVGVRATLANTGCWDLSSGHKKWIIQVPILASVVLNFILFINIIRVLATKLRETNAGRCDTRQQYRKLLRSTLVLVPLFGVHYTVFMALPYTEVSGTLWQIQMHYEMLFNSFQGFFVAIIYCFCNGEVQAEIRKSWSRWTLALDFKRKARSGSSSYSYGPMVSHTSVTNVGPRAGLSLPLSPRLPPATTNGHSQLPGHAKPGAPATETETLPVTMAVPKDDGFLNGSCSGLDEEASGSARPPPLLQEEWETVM

[2] = system: anesthetized female Sprague-Dawley rats; assay: Hypotensive effect, tail artery pressure in anaesthetized rats
Method: Female Sprague-Dawley rats (weighing over 290 g) were anaesthetized with intraperitoneally injected sodium pentobarbital (65 mg/kg body weight). Rectal temperature was monitored with a YS1402 thermistor (Yellow Springs Instrument Co., Inc. Yellow Springs, Ohio) and maintained between 36.0 and 38.5° C. throughout the experiment. Ear pinna temperature was also monitored using a YSi banjo thermistor. The tail artery was exposed to cannulated with a Jelco 25-gIV catheter (Johnson and Johnson Medical Inc., Arlington, Tex.) and connected to a Statham pressure transducer, the signals from which were recorded digitally with a Biopac Systems MP100 Monitor (Harvard Instruments, Saint Laurent, QC, Canada). For intravenous injection of PTH or one of its fragments, a femoral vein was also exposed. After surgery, the rat was allowed to stabilize for 8 min after which PTH or one of its fragments (dissolved in acidified saline containing 0.001 N HCl) was injected into the femoral vein or under the skin of the abdomen. Data were collected for 12 min after intravenous injection or for 22 min after subcutaneous injection.

[3] = target: T2, PTH receptor (rat (ROS 17/2 rat osteosarcoma cell …, UniProt P25961)); assay: cell-based or functional assay
[4] = target: T2, PTH receptor; assay: cell-based or functional assay; remark: listed apart in the source
[5] = system: ovariectomized (OVX) Sprague-Dawley rats; assay: Anabolic activity in ovariectomized rat model, injections from 2nd to 8th week after OVX; type: in vivo; conditions: subcutaneously injected
Text: A full description of the protocol is given in Rixon et al, J. Bone & Mineral Research 9, 1179-1189, 1994 and Whitfield et al Calcif. Tissue Int. 58, 81-87, 1996 incorporated herein by reference. Normal, Sham-OVX (ovariectomized), and OVX Sprague-Dawley rats (3 months-old; 255-260 g) were purchased from
Charles River Laboratories (St. Constant, QC). The rats were randomized into groups of 8 animals which received Purina rat chow and water ad libitum. There were no unscheduled deaths. The animals received 6, once-daily subcutaneous injections/week starting at the end of the second week after OVX, and ending at the end of the 8th week after OVX (i.e., 36 injections). Eight Sham-OVX and 8 OVX controls rats received 36 injections of vehicle (0.15 M NaCl containing 0.001N HCl) while 8 OVX rats received 0.6 nmole of fragment in vehicle/100 g of body weight). At the end of the 8th week after OVX, femurs were removed isolated, cleaned, and cut in half at mid-diaphysis and the proximal half was discarded. After removing the epiphysis, each half-femur was split lengthwise into two parts and the bone marrow was flushed out.
The bone-building potencies of the fragments were assessed from the changes in the mean thicknesses (area/perimeter) of the trabeculae in the distal half-femurs from the variously treated animals. To measure mean trabecular thickness, the two demineralized half-femurs from each rat were dehydrated and embedded in paraffin. Longitudinal, 10-μm sections from the middle plane of each bone were cut and then strained with Sanderson's rapid bone stain (Surgipath Medical Industries, Inc., Winnipeg, MB, Canada). The mean trabecular thickness was measured using a M4 imaging system and bone morphometric software from Imaging Research Inc., (St. Catherines, ON, Canada).
The results are further presented in the form of a bar graph in FIG. 7.

[6] = ROS 17/2 cells, concentration for half-maximal increase in AC activity, read-out: Adenylyl Cyclase (EC50)
[7] = intravenous, 0.8 nmol/100 g of body weight

Molecule: CC[C@H](C)[C@H](NC(=O)[C@H](CCC(=O)O)NC(=O)[C@H](CO)NC(=O)[C@@H](NC(=O)[C@@H](N)CO)C(C)C)C(=O)N[C@@H](CCC(N)=O)C(=O)N[C@@H](CC(C)C)C(=O)N[C@@H](CCSC)C(=O)N[C@@H](Cc1c[nH]cn1)C(=O)N[C@@H](CC(N)=O)C(=O)N[C@@H](CC(C)C)C(=O)NCC(=O)N[C@@H](CCCCN)C(=O)N[C@@H](Cc1c[nH]cn1)C(=O)N[C@@H](CC(C)C)C(=O)N[C@@H](CC(N)=O)C(=O)N[C@@H](CO)C(=O)N[C@@H](CCSC)C(=O)N[C@@H](CCC(=O)O)C(=O)N[C@@H](CCCN=C(N)N)C(=O)N[C@H](C(=O)N[C@H]1CCC(=O)NCCCC[C@@H](C(=O)N[C@@H](CC(C)C)C(=O)N[C@@H](CC(C)C)C(=O)N[C@@H](CCC(N)=O)C(=O)N[C@@H](CC(=O)O)C(N)=O)NC(=O)[C@H](CCCN=C(N)N)NC(=O)[C@H](CC(C)C)NC(=O)[C@H](Cc2c[nH]c3ccccc23)NC1=O)C(C)C [compound 8, [Leu^27]cyclo(Glu^22Lys^26)-hPTH-(1-30)-NH2] (H-SVSEIQLMHNLGKHLNSMERVEWLRKLLQD-NH2; lactam 22-26)
- EC50 [1, 6]: 0.02 µM
- rate of transport of subcutaneously injected peptide to the vascular system ([2]; subcutaneous, 0.8 nmol/100 g of body weight): significantly (p<0.05) reduced rates of transport

Molecule: CC[C@H](C)[C@H](NC(=O)[C@H](CCC(=O)O)NC(=O)[C@H](CO)NC(=O)[C@@H](NC(=O)[C@@H](N)CO)C(C)C)C(=O)N[C@@H](CCC(N)=O)C(=O)N[C@@H](CC(C)C)C(=O)N[C@@H](CCSC)C(=O)N[C@@H](Cc1c[nH]cn1)C(=O)N[C@@H](CC(N)=O)C(=O)N[C@@H](CC(C)C)C(=O)NCC(=O)N[C@@H](CCCCN)C(=O)N[C@@H](Cc1c[nH]cn1)C(=O)N[C@@H](CC(C)C)C(=O)N[C@@H](CC(N)=O)C(=O)N[C@@H](CO)C(=O)N[C@@H](CCSC)C(=O)N[C@@H](CCC(=O)O)C(=O)N[C@@H](CCCNC(=N)N)C(=O)N[C@H](C(=O)N[C@@H](CCC(=O)O)C(=O)N[C@@H](Cc1c[nH]c2ccccc12)C(=O)N[C@@H](CC(C)C)C(=O)N[C@@H](CCCNC(=N)N)C(=O)N[C@H]1CCCCNC(=O)C[C@@H](C(=O)N[C@H](C(N)=O)C(C)C)NC(=O)[C@H](CCC(N)=O)NC(=O)[C@H](CC(C)C)NC(=O)[C@H](CC(C)C)NC1=O)C(C)C [compound 4, [Leu^27]cyclo(Lys^26-Asp^30)-hPTH-(1-31)-NH2] (H-SVSEIQLMHNLGKHLNSMERVEWLRKLLQDV-NH2; lactam 26-30; N-terminus assumed)
- EC50 [1, 6]: 0.003 µM
- EC50 ([1]; ROS cell line, read-out: EC50, AC-stimulating activity): 0.017 ± 0.0033 µM
- hypotensive action, in words ([2]; subcutaneous injection): enhanced hypotensive effects

B1: [Leu^27]cyclo(Lys^26-Asp^30)-hPTH-(1-31)-NH2 (peptide)
peptide: SVSEIQLMHNLGKHLNSMERVEWLRKLLQDV-NH2
modifications: lactam 26-30; N-terminus assumed
SMILES: CC[C@H](C)[C@H](NC(=O)[C@H](CCC(=O)O)NC(=O)[C@H](CO)NC(=O)[C@@H](NC(=O)[C@@H](N)CO)C(C)C)C(=O)N[C@@H](CCC(N)=O)C(=O)N[C@@H](CC(C)C)C(=O)N[C@@H](CCSC)C(=O)N[C@@H](Cc1c[nH]cn1)C(=O)N[C@@H](CC(N)=O)C(=O)N[C@@H](CC(C)C)C(=O)NCC(=O)N[C@@H](CCCCN)C(=O)N[C@@H](Cc1c[nH]cn1)C(=O)N[C@@H](CC(C)C)C(=O)N[C@@H](CC(N)=O)C(=O)N[C@@H](CO)C(=O)N[C@@H](CCSC)C(=O)N[C@@H](CCC(=O)O)C(=O)N[C@@H](CCCNC(=N)N)C(=O)N[C@H](C(=O)N[C@@H](CCC(=O)O)C(=O)N[C@@H](Cc1c[nH]c2ccccc12)C(=O)N[C@@H](CC(C)C)C(=O)N[C@@H](CCCNC(=N)N)C(=O)N[C@H]1CCCCNC(=O)C[C@@H](C(=O)N[C@H](C(N)=O)C(C)C)NC(=O)[C@H](CCC(N)=O)NC(=O)[C@H](CC(C)C)NC(=O)[C@H](CC(C)C)NC1=O)C(C)C
- adenylyl cyclase stimulation, EC50 [3]: 0.017 µM

B2: [Leu^27]cyclo(Glu^22-Lys^26)-hPTH-(1-31)-NH2 (peptide)
peptide: SVSEIQLMHNLGKHLNSMERVEWLRKLLQDV-NH2
modifications: lactam 22-26; N-terminus assumed
SMILES: CC[C@H](C)[C@H](NC(=O)[C@H](CCC(=O)O)NC(=O)[C@H](CO)NC(=O)[C@@H](NC(=O)[C@@H](N)CO)C(C)C)C(=O)N[C@@H](CCC(N)=O)C(=O)N[C@@H](CC(C)C)C(=O)N[C@@H](CCSC)C(=O)N[C@@H](Cc1c[nH]cn1)C(=O)N[C@@H](CC(N)=O)C(=O)N[C@@H](CC(C)C)C(=O)NCC(=O)N[C@@H](CCCCN)C(=O)N[C@@H](Cc1c[nH]cn1)C(=O)N[C@@H](CC(C)C)C(=O)N[C@@H](CC(N)=O)C(=O)N[C@@H](CO)C(=O)N[C@@H](CCSC)C(=O)N[C@@H](CCC(=O)O)C(=O)N[C@@H](CCCNC(=N)N)C(=O)N[C@H](C(=O)N[C@H]1CCC(=O)NCCCC[C@@H](C(=O)N[C@@H](CC(C)C)C(=O)N[C@@H](CC(C)C)C(=O)N[C@@H](CCC(N)=O)C(=O)N[C@@H](CC(=O)O)C(=O)N[C@H](C(N)=O)C(C)C)NC(=O)[C@H](CCCNC(=N)N)NC(=O)[C@H](CC(C)C)NC(=O)[C@H](Cc2c[nH]c3ccccc23)NC1=O)C(C)C
- AC-stimulating activity, EC50 [3]: 0.0033 µM
- Adenylyl Cyclase (EC50) [4]: 0.003 µM

Molecule: SVSEIQLMHNLGKHLNSMERVEWLRKKLQDV-NH2 (lactam 27-30) [cyclo(Lys^27-Asp^30)-hPTH-(1-31)-NH2]
- adenylyl cyclase stimulation, EC50 [3]: 0.0403 µM
- Adenylyl Cyclase (EC50) [4]: 0.04 µM

B3: hPTH-(1-84) (protein, UniProt P01270 32-115, looked up)
Parathyroid hormone: SVSEIQLMHNLGKHLNSMERVEWLRKKLQDVHNFVALGAPLAPRDAGSQRPRKKEDNVLVESHEKSLGEADKADVNVLTKAKSQ
modifications: Parathyroid hormone
notes: full-length human parathyroid hormone, AC/PLC-stimulating
- osteogenic activity, in words [5]: equally osteogenic; also recorded: strongly osteogenic
- time to reduction of tail artery pressure ([2]; injection into a femoral vein): about 1 minute
- hypotensive action, in words ([2]; intravenous injection): no significant difference
- reduction of tail artery pressure [2, 7]: 43.2±5.8 mm Hg
- time to maximum drop in tail artery pressure [2, 7]: 0.9 ± 0.08 min
- time for tail artery pressure to fall to its minimum ([2]; subcutaneous injection): needs the same amount of time to reduce the blood pressure

Molecule: SVSEIQLMHNLGKHLNSMERVEWLRKLLQDV-NH2 [[Leu^27]-hPTH-(1-31)-NH2]
- AC activity in the ROS cell line, EC50 [3]: 0.0115 µM
